The target in test [1] is T1, purified recombinant His-USP7, full-length (human, UniProt Q93009 1-1102).
T1 construct: human USP7, recombinant, full-length; also called human recombinant USP7; source: bought: R&D Systems (# E-519)
Briefly: pull-down; GST-FAN1-NTD on Glutathione Sepharose beads, 0.5 µg recombinant His-USP7, 1 h at 4 °C in PBS-1% Triton; washes with 300 mM NaCl; immunoblotting. The settings on record: both partners purified. In general terms: In western blotting, separated proteins are transferred to a membrane and probed.

Test [2] deals with T2, recombinant full length His6-MBP-FAN1-His6 (human, UniProt Q9Y2M0 1-1017).
T2 construct: human FAN1, full length; Tag ends are read from the printed name His6-MBP-FAN1-His6; also called MBP-His-tagged FAN1; recombinant human FAN1; source: E. coli BL21, purified (HisTrap, MBPTrap, desalting); not shown: His6, N-terminal, kept; MBP, N-terminal, kept; His6, C-terminal, kept
T2 sequence (looked up): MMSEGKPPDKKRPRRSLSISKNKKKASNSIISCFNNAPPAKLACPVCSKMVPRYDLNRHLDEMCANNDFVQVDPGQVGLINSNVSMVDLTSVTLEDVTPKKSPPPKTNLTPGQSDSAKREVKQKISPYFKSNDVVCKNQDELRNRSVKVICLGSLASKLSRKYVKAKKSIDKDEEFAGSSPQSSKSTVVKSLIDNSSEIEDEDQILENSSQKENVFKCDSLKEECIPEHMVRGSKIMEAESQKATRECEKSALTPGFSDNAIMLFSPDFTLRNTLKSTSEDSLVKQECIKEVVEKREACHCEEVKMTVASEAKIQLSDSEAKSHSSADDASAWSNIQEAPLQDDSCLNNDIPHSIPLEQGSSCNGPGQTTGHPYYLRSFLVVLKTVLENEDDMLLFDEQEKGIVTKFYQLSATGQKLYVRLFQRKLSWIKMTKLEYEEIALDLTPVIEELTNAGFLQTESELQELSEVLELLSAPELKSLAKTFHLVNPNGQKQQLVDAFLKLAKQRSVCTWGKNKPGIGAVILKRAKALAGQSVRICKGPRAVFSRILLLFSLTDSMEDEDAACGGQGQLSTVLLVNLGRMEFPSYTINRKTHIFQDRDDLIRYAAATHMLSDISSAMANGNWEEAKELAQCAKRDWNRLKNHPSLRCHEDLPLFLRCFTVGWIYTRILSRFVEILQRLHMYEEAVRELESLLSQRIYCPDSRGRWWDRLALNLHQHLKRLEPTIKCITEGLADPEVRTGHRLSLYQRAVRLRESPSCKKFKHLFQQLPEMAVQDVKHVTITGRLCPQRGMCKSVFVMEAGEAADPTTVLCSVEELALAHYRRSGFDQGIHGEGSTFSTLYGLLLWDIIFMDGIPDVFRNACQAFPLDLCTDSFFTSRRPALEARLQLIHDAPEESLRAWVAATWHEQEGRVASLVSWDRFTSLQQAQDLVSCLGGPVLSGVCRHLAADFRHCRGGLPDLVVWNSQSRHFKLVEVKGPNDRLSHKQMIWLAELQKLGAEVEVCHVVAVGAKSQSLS
The test can be described thus: pull-down; in vitro streptavidin pull-down with recombinant biotin-tagged USP7 TRAF-like or UBL domains and MBP-His-tagged FAN1 (Figure S3A). To be noted: both partners purified.

T1 sequence (Q93009 whole entry): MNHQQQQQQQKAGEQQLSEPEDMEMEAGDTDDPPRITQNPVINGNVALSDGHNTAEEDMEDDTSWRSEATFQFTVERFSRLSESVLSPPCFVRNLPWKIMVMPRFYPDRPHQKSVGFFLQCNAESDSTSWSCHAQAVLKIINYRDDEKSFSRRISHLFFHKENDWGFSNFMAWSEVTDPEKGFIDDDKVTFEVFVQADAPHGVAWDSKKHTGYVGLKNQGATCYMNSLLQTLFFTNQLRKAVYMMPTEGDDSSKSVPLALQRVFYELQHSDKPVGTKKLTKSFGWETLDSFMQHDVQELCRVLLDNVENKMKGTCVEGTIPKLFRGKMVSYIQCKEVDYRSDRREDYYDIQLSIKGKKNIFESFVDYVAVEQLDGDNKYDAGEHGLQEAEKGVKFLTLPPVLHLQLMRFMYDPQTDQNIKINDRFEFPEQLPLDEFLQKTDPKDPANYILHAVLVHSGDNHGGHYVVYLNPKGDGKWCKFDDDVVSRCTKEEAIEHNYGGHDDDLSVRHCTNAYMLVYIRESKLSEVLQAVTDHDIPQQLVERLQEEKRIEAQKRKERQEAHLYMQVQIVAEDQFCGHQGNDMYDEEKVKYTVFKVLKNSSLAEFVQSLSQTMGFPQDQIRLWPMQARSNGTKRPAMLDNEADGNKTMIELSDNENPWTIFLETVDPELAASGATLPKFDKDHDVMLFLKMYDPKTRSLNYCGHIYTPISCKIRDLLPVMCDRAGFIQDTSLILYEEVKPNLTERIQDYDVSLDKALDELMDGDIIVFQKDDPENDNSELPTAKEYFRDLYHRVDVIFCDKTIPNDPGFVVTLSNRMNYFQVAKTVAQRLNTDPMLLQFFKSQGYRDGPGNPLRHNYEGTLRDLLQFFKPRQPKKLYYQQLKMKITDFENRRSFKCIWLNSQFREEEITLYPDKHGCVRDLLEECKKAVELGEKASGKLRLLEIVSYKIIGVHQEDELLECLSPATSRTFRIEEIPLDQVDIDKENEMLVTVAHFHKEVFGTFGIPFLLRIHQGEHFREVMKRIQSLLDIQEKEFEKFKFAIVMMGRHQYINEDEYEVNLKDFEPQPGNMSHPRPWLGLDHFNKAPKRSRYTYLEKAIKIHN

B1: GST-FAN1-NTD (aa 1-372) (domain or fragment, human, UniProt Q9Y2M0 1-372, looked up)
chain: MMSEGKPPDKKRPRRSLSISKNKKKASNSIISCFNNAPPAKLACPVCSKMVPRYDLNRHLDEMCANNDFVQVDPGQVGLINSNVSMVDLTSVTLEDVTPKKSPPPKTNLTPGQSDSAKREVKQKISPYFKSNDVVCKNQDELRNRSVKVICLGSLASKLSRKYVKAKKSIDKDEEFAGSSPQSSKSTVVKSLIDNSSEIEDEDQILENSSQKENVFKCDSLKEECIPEHMVRGSKIMEAESQKATRECEKSALTPGFSDNAIMLFSPDFTLRNTLKSTSEDSLVKQECIKEVVEKREACHCEEVKMTVASEAKIQLSDSEAKSHSSADDASAWSNIQEAPLQDDSCLNNDIPHSIPLEQGSSCNGPGQTTGH
notes: also called GST-tagged FAN1; source: E. coli BL21-CodonPlus RIL, purified from soluble extracts on Glutathione Sepharose beads
In the case of B1, the binding result in test [1] is listed as “binds”.

B2: USP7 UBL domain (residues 520-1067), biotinylated (domain or fragment, human, UniProt Q93009 520-1067, looked up)
chain: RESKLSEVLQAVTDHDIPQQLVERLQEEKRIEAQKRKERQEAHLYMQVQIVAEDQFCGHQGNDMYDEEKVKYTVFKVLKNSSLAEFVQSLSQTMGFPQDQIRLWPMQARSNGTKRPAMLDNEADGNKTMIELSDNENPWTIFLETVDPELAASGATLPKFDKDHDVMLFLKMYDPKTRSLNYCGHIYTPISCKIRDLLPVMCDRAGFIQDTSLILYEEVKPNLTERIQDYDVSLDKALDELMDGDIIVFQKDDPENDNSELPTAKEYFRDLYHRVDVIFCDKTIPNDPGFVVTLSNRMNYFQVAKTVAQRLNTDPMLLQFFKSQGYRDGPGNPLRHNYEGTLRDLLQFFKPRQPKKLYYQQLKMKITDFENRRSFKCIWLNSQFREEEITLYPDKHGCVRDLLEECKKAVELGEKASGKLRLLEIVSYKIIGVHQEDELLECLSPATSRTFRIEEIPLDQVDIDKENEMLVTVAHFHKEVFGTFGIPFLLRIHQGEHFREVMKRIQSLLDIQEKEFEKFKFAIVMMGRHQYINEDEYEVNLKDFEPQP
modifications: biotin (on the AviTag)
notes: human USP7 UBL domain, residues 520-1067; p28BIOH-LIC vector; also called USP7 UBL domains; source: E. coli BL21(DE3)-pBirAcm, purified (TALON, SEC); not shown: AviTag, N-terminal, kept
Regarding B2, the binding result in test [2] is on record as “binds”.

The values above are taken from PMC13086964 (Nature Communications, 2026).
